# How the values were obtained:
# [1] = target: Ubiquitin carboxyl-terminal hydrolase isozyme L1 (human) (UniProt P09936); experiment: SPR
# Cofilin-1 (human) = Cofilin-1 (human) (UniProt P23528); experiment: SPR
# Chain of Cofilin-1 (human) (P23528 whole entry): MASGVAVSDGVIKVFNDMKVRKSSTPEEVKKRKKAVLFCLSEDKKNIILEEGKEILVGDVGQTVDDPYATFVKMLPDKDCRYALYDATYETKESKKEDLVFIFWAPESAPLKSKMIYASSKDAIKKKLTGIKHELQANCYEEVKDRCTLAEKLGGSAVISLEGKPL
# Chain of Ubiquitin carboxyl-terminal hydrolase isozyme L1 (human) (P09936 whole entry): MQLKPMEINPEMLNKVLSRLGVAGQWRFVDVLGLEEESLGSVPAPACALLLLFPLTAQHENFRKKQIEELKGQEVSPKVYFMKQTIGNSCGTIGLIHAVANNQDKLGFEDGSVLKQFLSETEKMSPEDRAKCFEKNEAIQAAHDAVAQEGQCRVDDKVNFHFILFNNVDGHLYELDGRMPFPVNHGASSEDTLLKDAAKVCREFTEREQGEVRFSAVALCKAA
substance,measurement,setting,value
α-synuclein oligomer (from UniProt P37840 1-140) (natural protein),Kd,[1],0.6 µM
same,Kd,Cofilin-1 (human),0.29 µM

# Source: publication doi:10.1101/2022.10.06.511078
